Reference: patent US20210147536A1 (MAB VENTURE BIOPHARM, published 2021)

T1: human LAG-3 on the cell surface (human, UniProt P18627 23-525)
T1 construct: whole, on cells; also called cells expressing the human LAG-3
T1 sequence (looked up): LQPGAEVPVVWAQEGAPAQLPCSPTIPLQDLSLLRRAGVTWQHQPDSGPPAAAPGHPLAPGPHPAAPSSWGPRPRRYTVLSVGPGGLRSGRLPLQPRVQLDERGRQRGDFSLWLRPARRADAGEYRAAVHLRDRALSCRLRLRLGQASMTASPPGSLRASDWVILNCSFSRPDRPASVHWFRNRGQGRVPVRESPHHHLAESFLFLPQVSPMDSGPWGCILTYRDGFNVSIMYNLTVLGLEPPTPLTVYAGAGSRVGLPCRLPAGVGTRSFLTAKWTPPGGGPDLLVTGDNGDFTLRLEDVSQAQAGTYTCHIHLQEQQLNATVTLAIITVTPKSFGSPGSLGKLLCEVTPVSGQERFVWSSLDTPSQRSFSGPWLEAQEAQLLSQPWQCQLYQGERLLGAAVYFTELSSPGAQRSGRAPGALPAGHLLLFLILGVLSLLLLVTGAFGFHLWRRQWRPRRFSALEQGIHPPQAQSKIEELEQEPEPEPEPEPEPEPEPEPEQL

T2: human LAG-3-6*His tag recombinant fusion protein (human, UniProt P18627 23-450, biotin-labelled in panning and in Example 9)
T2 construct: Bought protein; also called hLAG-3-6*his tag recombinant protein; human LAG-3-his tag recombinant fusion protein
T2 sequence: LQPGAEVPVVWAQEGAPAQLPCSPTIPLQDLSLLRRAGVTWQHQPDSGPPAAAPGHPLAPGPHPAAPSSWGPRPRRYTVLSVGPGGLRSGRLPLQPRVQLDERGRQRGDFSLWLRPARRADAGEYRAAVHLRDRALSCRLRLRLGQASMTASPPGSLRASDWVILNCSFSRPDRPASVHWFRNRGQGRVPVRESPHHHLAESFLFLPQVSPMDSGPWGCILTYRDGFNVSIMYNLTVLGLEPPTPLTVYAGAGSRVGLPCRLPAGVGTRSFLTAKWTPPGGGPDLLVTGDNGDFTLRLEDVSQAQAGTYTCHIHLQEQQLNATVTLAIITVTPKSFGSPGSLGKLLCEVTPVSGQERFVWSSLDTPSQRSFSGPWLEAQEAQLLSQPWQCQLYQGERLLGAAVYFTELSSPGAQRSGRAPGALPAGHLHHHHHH

B1: scFv single chain antibody 11451 (scFv)
scFv: QVQLQESGPGLVKPSETLSLTCTVSGGSISSGGYYWGWIRQPPGKGLEWIGSIYYSGRTYYNPSLKSRVTISVDTSRNQFSLKLSSLTAADTAVYYCARTGGGAYGFDYWGQGTLVTVSSGGGGSGGGGSGGGGSGGGGASQPVLTQPHSVSESPGKTVTISCTRSSGNIASNYVQWYQKRPGSPPTTVIYEDNQRPSGVPDRFSASIDSSSNSASLTISGLRTEDEADYYCQSYDTILGYVFGGGTQLTAL
notes: From phagemid pCLS1.0, which adds a C-terminal Myc-His tag
B2: scFv single chain antibody 11452 (scFv)
scFv: EVQLLESGAEVKKPGASVKVSCKASGYTFTSYGISWVRQAPGQGLEWMGWISAYNGNTNYAQKLQGRVTMTTDTSTSTAYMELRSLRSDDTAVYYCARDGWWELLRPDDAFDIWGQGTTVTVSSGGGGSGGGGSGGGGSGGGGASQLVLTQSPSVSVSPGQTASITCSGDKLGDKYAYWYQQKPGQAPVLVIYYDSDRPSGIPERFSGSNSGNTATLTISRVEAGDEADYYCQVWDSSSDQVVFGGGTQLTVL
notes: as for B1
B3: scFv single chain antibody 11487 (scFv)
scFv: QVQLVESGGGLVQPGRSLRLSCVASGFTFDDHAMHWVRQTPEKGLEWVSGISWNGGDIRYADSVKGRFIISRDNAKNSLHLQMNSLRGEDTAVYYCARDGGYSVLRAFDIWGQGTTVTVSSGGGGSGGGGSGGGGSGGGGASQSVLTQPPSVSGAPGQRVTISCTGSSSNIGAGYDVHWYQQLPGTAPKLLIYGNSNRPSGVPDRFSGSKSGTSASLAITGLQAEDEADYYCQSYDSSLSGWVFGGGTQLIIL
notes: as for B1
B4: scFv single chain antibody 11455 (scFv)
scFv: EVHLVESGGGVVQPGRSLRLSCAASGFTFSNYAMHWVRQAPGKGLEWVAVISYDGNNQYYADSVKGRFTISRDNSKNTLYLQMNSLRAEDTAVFYCARSIGFLESDAFDIWGQGTTVTVSSGGGGSGGGGSGGGGSGGGGASEIVLMQSPGTLSLSPGERATLSCRASQSFSDGSLAWYQQKPGQPPRLVIYDASKRATGIPDRFSGSRSGTEFTLTISSLQSEDFAVYSCQQYYNWPPTFGQGTRLEIK
notes: as for B1
B5: scFv single chain antibody 11465 (scFv)
scFv: QVQLVQSGAEVKKPGSSVKVSCKTSGGTFSNYAINWVRQAPGQGLEWMGVIIPMFGPANYVQKFQGRVTITADETTSTAYMELSSLRSEDTAIYYCARDLAPAGFYGMDVWGQGTTVTVSSGGGGSGGGGSGGGGSGGGGASDIVLTQSPSSVSASVGDRVTITCRASQGISNWLAWYQQKPGKAPKLLIYAASSLQSGVPSRFSGSRSGTDFTLTISSLQPEDFATYYCQQARNFPFTFGQGTRLEIK
notes: as for B1
B6: scFv single chain antibody 11506 (scFv)
scFv: QLQLQESGPGLVKSSQTLSLTCSVSGDSISSGKYYWTWIRQPAGKGLEWLGRIHSSGFAQYNPSLKGRLTISVDTRKNEFSLKMTSVTAADTAVYYCARGGWNDPFDSWGQGTLVTVSSGGGGSGGGGSGGGGSGGGGASDIQMTQSPDSLAVSLGERATINCKSSQSVLYSSNNKNYLAWYQQKPGQPPKLLIYWASTRESGVPDRFSVSGSGTDFTLTISSLHAEDVAVYYCQQYYSTPITFGPGTKLEIK
notes: as for B1
B7: scFv single chain antibody 11507 (scFv)
scFv: QVQLQESGPGLVKPSETLSLTCTVSGYSISSGYYWGWIRQPPGKGLEWIGSIYHSGSTYYNPSLKSRVTISVDTSKNQFSLKLSSVTAADTAVYYCARDLQDWFDPWGQGTLVTVSSGGGGSGGGGSGGGGSGGGGASLAVLTHAPSASGTPGQRVTISCSGSKSNIGSNSVNWYQHLPGTAPKLLIHTNDQRPSGVPDRFAGSKSGTSASLTISGLRPEDEADYYCATWDDSMSGPVFGGGTELTVL
notes: as for B1
B8: scFv single chain antibody 11454 (scFv)
scFv: EVQLLQSGGGLVQPGGSLRLSCAASGFTFSSYEMNWVRQAPGKGLEWVSYISSSGSTIYYADSVKGRFTISRDNAKNSLYLQMNSLRAEDTAVYYCARVGLLDAFDIWGQGTMVTVSSGGGGSGGGGSGGGGSGGGGASQSVLTQPPSVSAAPGQKVTISCSGSSSNIGNNYVSWYQLIPEKAPRLLIYDDDKRPSGIPDRFSGSQSGTSATLGITGLQTGDEADYFCGTWDNSLSGAVFGGGTQLIIL
notes: as for B1
B9: scFv single chain antibody 11446 (scFv)
scFv: EVQLVESGGGVVQPGRSLRLSCAASGFTFSNYAMHWVRQAPGKGLEWVAVISYDGSDKYYADSVKGRFTISRDNSKNTLYLQMKSLRAEDTAVYYCARSIGFLESDAFDIWGQGTTVTVSSGGGGSGGGGSGGGGSGGGGASDIVLTQSPSSLSASVGDRVTITCQASHGISNFLNWYQQKPGKAPKLLIYDASTLETGVPSRFSGSGSGTDFRFTISSLQPEDIATYYCQQFDNLPITFGQGTRLEIK
notes: as for B1
B10: scFv single chain antibody 11449 (scFv)
scFv: QVQLVQSGAEVKKPGASVKVSCKASGYTFTSYGISWVRQAPGQGLEWMGWISAYNGNTNYAQKLQGRVTMTTDTSTSTAYMELRSLRSDDTAVYYCARDEGANWGDAFDIWGQGTMVTVSSGGGGSGGGGSGGGGSGGGGASQLVLTQSPSASGTPGQRVTISCSGSSSNIGNNAVNWYQQLPGTAPKILIYSNNQRPSGVPDRFSGSKSGASASLAISGLQSEDESDYYCAAWDDSLNAVVFSGGTELTVL
notes: as for B1
B11: scFv single chain antibody 11458 (scFv)
scFv: RVRLQESGPGLVKPSETLSLTCTVSGGSISSSSYYWGWIRQPPGKGLEWIGSIYYSGSTYYNPSLKSRVTISVDTSKNQFSLKLSSVTAADTAVYYCAREYSGYDGAYVGYWGQGTLVTVSSGGGGSGGGGSGGGGSGGGGASQSVLTQPPSVSGAPGQRVTISCTGSNSNIRAGYDVHWYQQLPGTVPKLLIYGNSNRPSGVPDRFSGSKSGTSASLAISGLQSEDEGNYFCATWDDSLWGWVFGAGTELTVL
notes: as for B1
B12: IgG4 monoclonal antibody 11487 (antibody, V domains shown)
VH: QVQLVESGGGLVQPGRSLRLSCVASGFTFDDHAMHWVRQTPEKGLEWVSGISWNGGDIRYADSVKGRFIISRDNAKNSLHLQMNSLRGEDTAVYYCARDGGYSVLRAFDIWGQGTTVTVSS
VL: QSVLTQPPSVSGAPGQRVTISCTGSSSNIGAGYDVHWYQQLPGTAPKLLIYGNSNRPSGVPDRFSGSKSGTSASLAITGLQAEDEADYYCQSYDSSLSGWVFGGGTQLIILG
notes: IgG4, lambda
B13: IgG4 monoclonal antibody 11454 (antibody, V domains shown)
VH: EVQLLQSGGGLVQPGGSLRLSCAASGFTFSSYEMNWVRQAPGKGLEWVSYISSSGSTIYYADSVKGRFTISRDNAKNSLYLQMNSLRAEDTAVYYCARVGLLDAFDIWGQGTMVTVSS
VL: QSVLTQPPSVSAAPGQKVTISCSGSSSNIGNNYVSWYQLIPEKAPRLLIYDDDKRPSGIPDRFSGSQSGTSATLGITGLQTGDEADYFCGTWDNSLSGAVFGGGTQLIILG
notes: IgG4, lambda
B14: IgG4 monoclonal antibody 11446 (antibody, V domains shown)
VH: EVQLVESGGGVVQPGRSLRLSCAASGFTFSNYAMHWVRQAPGKGLEWVAVISYDGSDKYYADSVKGRFTISRDNSKNTLYLQMKSLRAEDTAVYYCARSIGFLESDAFDIWGQGTTVTVSS
VL: DIVLTQSPSSLSASVGDRVTITCQASHGISNFLNWYQQKPGKAPKLLIYDASTLETGVPSRFSGSGSGTDFRFTISSLQPEDIATYYCQQFDNLPITFGQGTRLEIK
notes: IgG4, kappa
B15: IgG4 monoclonal antibody 11455 (antibody, V domains shown)
VH: EVHLVESGGGVVQPGRSLRLSCAASGFTFSNYAMHWVRQAPGKGLEWVAVISYDGNNQYYADSVKGRFTISRDNSKNTLYLQMNSLRAEDTAVFYCARSIGFLESDAFDIWGQGTTVTVSS
VL: EIVLMQSPGTLSLSPGERATLSCRASQSFSDGSLAWYQQKPGQPPRLVIYDASKRATGIPDRFSGSRSGTEFTLTISSLQSEDFAVYSCQQYYNWPPTFGQGTRLEIK
notes: IgG4, kappa
B16: IgG4 monoclonal antibody 11471 (antibody, V domains shown)
VH: RVRLQESGPGLVKPSQTLSLTCTVSGGSISSSNWWSWVRQPPGKGLEWIGEIYHSGSTNYNPSLKSRVTISVDKSKNQFSLKLSSVTAADTAVYYCARDRAIRDAFDIWGQGTTVTVSS
VL: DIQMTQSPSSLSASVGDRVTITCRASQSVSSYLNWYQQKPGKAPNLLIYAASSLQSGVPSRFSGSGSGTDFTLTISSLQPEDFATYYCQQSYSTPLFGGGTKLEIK
notes: IgG4, kappa

target: T1, human LAG-3 on the cell surface; experiment: flow cytometry, soluble scFv supernatant on activated human CD4+ T cells, anti-His-PE

Row | Binder | binding result
1 | B1 | binds
2 | B2 | binds
3 | B3 | binds
4 | B4 | binds
5 | B5 | binds
6 | B6 | binds
7 | B7 | binds
8 | B8 | binds
9 | B9 | binds
10 | B10 | binds
11 | B11 | binds

target: T2, human LAG-3-6*His tag recombinant …; experiment: ELISA, human LAG-3-6*His coated at 1 µg/ml, IgG4 titrated, anti-hIgG HRP

Row | Binder | EC50
12 | B12 | 3.35 µg/mL
13 | B13 | 85.8 µg/mL
14 | B14 | 85.6 µg/mL
15 | B15 | 83.1 µg/mL
16 | B16 | 22.3 µg/mL
